Molecular target: T1, His6-CRP (cAMP receptor protein) (Shewanella putrefaciens CN32) (UniProt A0ABX8XCW1)
T1 sequence: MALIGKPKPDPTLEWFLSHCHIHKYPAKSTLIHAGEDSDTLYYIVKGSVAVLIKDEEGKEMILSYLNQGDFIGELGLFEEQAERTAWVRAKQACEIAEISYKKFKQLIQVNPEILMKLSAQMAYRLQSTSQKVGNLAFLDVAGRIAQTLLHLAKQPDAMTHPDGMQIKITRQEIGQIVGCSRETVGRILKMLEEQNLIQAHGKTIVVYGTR
Test: EMSA
Settings: EMSA per DIG Gel Shift Kit 2nd Generation (Roche) protocol, 1 uM cAMP when necessary; buffer, salt, pH and temperature not given

Which binding does the source give for “ACCGATCCCATAATTAGCTCCCAACACCCAAGTGTTAATCCAAACAAAGGCCCACAAATCCAACAAATGTATGGAAGTGTGATACAAGTGGTGGAATTTTAGCTAATGAGCGAATGGAAGTCAATTTTTTGACGCGCCTCTATCGCTTGGTATTAAGGCTTTTTCTTGCGCATTACCTGTAAAATTGACGCTGGTTTTGTATAAAACTAGATGTTGTATGTTTATTTGTA (double strand) [bpfA-pro]” here?
The binding was “binds”.

Source: publication PMC8938473
